Assay results as given in US20250027068.
Residue numbers refer to the chain shown, from its start.

B1: PRT-404 (protein)
chain: MVTSVWTKGVTPPADFTQGEDVFHAPYVANQGWYDITKTFNGKDDLLCGAATAGNMLHWWFDQNKEYIEAYLKKHPEKQKIMFGDQELLDVRKAINTKGSQKNSELFNYFRDKAFPNLSARRLGVMPDLVLDMFINGYYLNVTKTQTTDVNRTYQEKDKRGGIFDAVFTRGDQSKLLTSRHDFKEKGLKEISDLIKQELTEGKALGLSHTYANVRIGHVINLWGADFDSDGNLKAIYVTDSDSNASIGMKKYFVGVNSAGKVAISAKEIKEDNIGAQVLGLFTLSTGQDIWNQTN
B2: PRT-412 (protein)
chain: B1 chain with G217N, S258A
B3: PRT-248 (protein)
chain: MVTSVWTKGVTPPTNFTYGEDVLHAPYVANQGWYDITKTFNGKDDLLCGAATAGNMLHWWFDQNKEQIENYLKKHPEKQKINFNGEQMFDVKEAIDTKDSQLDSKLFEYFKEKAFPNLSTKHLGVFPDHVIDMFINGYRLSLLNHGPTPVKRGSKDPRGGIFDAVFTRGDQSKLLTNRHDFKEKTLKEISDLIKQELTEGKALGISHTYANVRINHVINLWGADFDAEGNLEAIYVTDSDSNASIGMKKYFVGVNSSGKVAISAKEIEEDNIGAQVLGLFTLSTGQDIWNQTN
B4: PRT-264 (protein)
chain: B3 chain with T39L, D45N, M88L, E108D, N117Y, L143T, P157K, D170V, S241T, A243P
B5: PRT-256 (protein)
chain: B3 chain with T39L, K111L, R213G, Y235A
B6: PRT-581 (protein)
chain: MANQEIRYSKATPKTITSVWTKGVTPPENFIYNEDVLHAPYLANQGWYDITKTFNGKDDLLCGAATAGNMLHWWFDQNKEQIERYLKEHPEKQKINFNGEQMFDVKEAIDTKDSQTNSKLFEYFKDKAFPYLSTKHLGVFPDHVIDMFINGYRLSLTNHGPTPVKEQTKDPRGGIFDAVFTRGDQSKLLTSRHDFKEKTLNEISDLIKQELTEGKALGLSHTYANVRINHVINLWGADFDAEGNLEAIYVTDSDSNASIGMKKYYVGVNSAGKVAISAKEIEGDNIGAQVLGLFTLSTGKDIWEQTNLEHHHHHH
B7: PRT-578 (protein)
chain: B6 chain with T15V, N29D, I31T, L37F, A43P, T168N, N201K, T212K
B8: PRT-272 (protein)
chain: MVTSVWTKGVTPPTDFIYGEDVLHAPYKAGQGWYDITKLFNGKDDLLCGAATAGNMLHWWFDQNKEQIENYLKKHPEKQKINFNGEQMFDVKEAIDTKDSQLDSKLFEYFLEKAFPYLSTKHLGVFPDHVIDMFINGYRLSLTNHGPTPVKRGSKDPRGGIFDAVFTRGDQSKLLTNRHDLKNKTLKEISDLIKQELTEGKALGISHTYANVRINHVINLWGADFDAEGNLEAIAVTDSDSNASIGMKKYFVGVNSSGKVAISAKEIEEDNIGAQVLGLFTLSTGQDIWNQTN
B9: PRT-561 (protein)
chain: MANQEIRYSEETPSTITSVWTKGVTPPTQFIYNEDVFHAPYIANQGWYDITKTFNGKDDLLCGAATAGNMLHWWFDQNKEQIENYLKKHPEKQKINFNGEQMFDVKEAIDTKDSQTDSKLFNYFKDKAFPYLSTKHLGVFPDHVIDMFINGYRLSLTNHGPTPVKRQTKDPRGGIFDAVFTRGDQSKLLTSRHDFKEKTLNEISDLIKQELTEGKALGLSHTYANVRINHVINLWGADFDAEGNLEAIYVTDSDSNASIGMKKYYVGVNSAGKVAISAKEIEGDNIGAQVLGLFTLSTGQDIWQQTNLEHHHHHH
B10: PRT-590 (protein)
chain: B9 chain with I16V, Q29D, Y32Q, F37L, K119A, N122E, Q167G, D240N, Q304N
B11: PRT-600 (protein)
chain: B9 chain with Q29D, Y32Q, F37L, K119A, N122E, Q167G, D240N, I302S, Q304N
B12: PRT-584 (protein)
chain: B9 chain with S14K, Q29N, F37L, N84R, D117N, N122E, D240N, Q304E
B13: PRT-547 (protein)
chain: MANQEIRYSEETPKTITSVWTKGVTPPTDFIQNEDVLHAPYIANQGWYDITKTFNGKDDLLCGAATAGNMLHWWFDQNKEEIENYLKKHPEKQKINFNGEQMFDVKEAIDTKDSQTDSALFEYFKDKAFPYLSTKHLGVFPDHVIDMFINGYRLSLTNHGPTPVKRGTKDPRGGIFDAVFTRGDQSKLLTARHDFKEKTLNEISDLIKQELTEGKALGLSHTYANVRINHVINLWGADFNSEGNLEAIYVTDSDSNASIGMKKYYVGVNAAGKVAISAKEIEGDNIGAQVLGLFTLSTGQDIWEQTNLEHHHHHH
B14: PRT-588 (protein)
chain: MRNQTTTYSEVTPSHITSVWTKGVTPPEQFIQGEDVFHAPYIANQGWYDITKTFNGKDDLLCGAATAGNMLHWWFDQNKEQIENYLKKHPEKQKIMFNNEEMFDLREAINTKDSQTDSALFSYFKDKAFPNLSARRLGVMPDHVLDMFINGYYLNVGNTDKTDVNRGTKDLRGGIFDAVFTRGDQSKLLTARHDLKNKTLKEISDLIKQELTEGKALALSHTYANVRINHVINLWGADFDAEGNLEAIYVTDSDSNASIGMKKYYVGVNSAGKVAISAKKIEGDNIGAQVLGLFTLSTGQDIWQQTNLEHHHHHH
B15: PRT-542 (protein)
chain: MANQEIRYSKNENPNVTIKWVHGIGEPTQAEKEKIEFWWYETTTTKFFNNRKVDHLGDGNQCWAKTDSNMLHWWFVQNEENINQYIEKKNITGKINFNGEQMFDVKEGIDDNQEPEKSYIANTFRTKKAHNLSTKHKGDYIINGLSWYLYGLNNFKNAHGPTPVKKKPKFYGPALFKDVFNRGDGNTPIIVETDFKEYTKKEFEDTLSAALDSKKAVGINIYGSNVDYQHAITLWGAAFDEEENIIAIYVVDNNFKFENRIFPYGIWYQKEGRPYLFNYEINSFVKNRYVGEITTLDKGEAQWQETNLEHHHHHH
B16: PRT-543 (protein)
chain: B15 chain with A30S, H55P, V217I, Q269E
B17: PRT-527 (protein)
chain: MANQEIRYSEETPKTITSVWTKGVTPPTDFIKNEDVLHAPYIANQGWYDITKTFNGKDDLLCGAATAGNMLHWWFDQNKEEIENYLKKHPEKQKINFNGEQMFDVKEAIDTKDSQTDSALFEYFKDKAFPNLSTKHLGVMPDLVLDMFINGYYLSLGKHGPTPVKRGTKDPRGGIFDAVFTRGDQSKLLTSRHDFKEKTLNEISDLIKQELTEGKALALSHTYANVRINHVINLWGADFNSEGNLEAIYVTDSDSNASIGMKKYYVGVNSAGKVAISAKEIEGDNIGAQVLGLFTLSTGQDIWEQTNLEHHHHHH

Biological target: pooled human IgG (human IgG1, 2, 3 and 4)

Row | Protein | Enzyme Activity Endpoint Assay (purified): Fab′2 | Enzyme Activity Endpoint Assay (purified): Fc | Enzyme Activity Endpoint Assay (purified): IgG | Enzyme Activity Endpoint Assay (purified): scIgG | Enzyme Activity Endpoint Assay: Fab′2 | Enzyme Activity Endpoint Assay: Fc | Enzyme Activity Endpoint Assay: IgG | Enzyme Activity Endpoint Assay: scIgG
1 | B1 | 0 ng/µL | 0 ng/µL | 1580 ng/µL | 0 ng/µL | – | – | – | –
2 | B2 | 518 ng/µL | 103 ng/µL | 0 ng/µL | 170 ng/µL | – | – | – | –
3 | B3 | – | – | – | – | 654 ng/µL | 370 ng/µL | 0 ng/µL | 0 ng/µL
4 | B4 | – | – | – | – | 606 ng/µL | 353 ng/µL | 97 ng/µL | 0 ng/µL
5 | B5 | – | – | – | – | 610 ng/µL | 376 ng/µL | 55 ng/µL | 0 ng/µL
6 | B6 | – | – | – | – | 660 ng/µL | 365 ng/µL | 0 ng/µL | 0 ng/µL
7 | B7 | – | – | – | – | 698 ng/µL | 394 ng/µL | 0 ng/µL | 0 ng/µL
8 | B8 | – | – | – | – | 721 ng/µL | 389 ng/µL | 0 ng/µL | 0 ng/µL
9 | B9 | – | – | – | – | 606 ng/µL | 405 ng/µL | 0 ng/µL | 0 ng/µL
10 | B10 | – | – | – | – | 954 ng/µL | 217 ng/µL | 0 ng/µL | 0 ng/µL
11 | B11 | – | – | – | – | 992 ng/µL | 441 ng/µL | 0 ng/µL | 0 ng/µL
12 | B12 | – | – | – | – | 552 ng/µL | 369 ng/µL | 51 ng/µL | 285 ng/µL
13 | B13 | – | – | – | – | 527 ng/µL | 359 ng/µL | 0 ng/µL | 256 ng/µL
14 | B14 | – | – | – | – | 658 ng/µL | 361 ng/µL | 0 ng/µL | 0 ng/µL
15 | B15 | – | – | – | – | 0 ng/µL | 0 ng/µL | 1470 ng/µL | 0 ng/µL
16 | B16 | – | – | – | – | 0 ng/µL | 0 ng/µL | 1470 ng/µL | 0 ng/µL
17 | B17 | – | – | – | – | 0 ng/µL | 142 ng/µL | 707 ng/µL | 396 ng/µL
